Results reported in patent US20250122306A1 (SUTRO BIOPHARMA, published 2025).

Target: tissue factor reagent of the Tissue Factor Activity Assay Kit (Abcam #ab108906) (UniProt P13726 33-295, limits assumed)
Test: cell-based or functional assay

Sequence of tissue factor reagent of the Tissue Factor Activity Assay Kit (Abcam #ab108906) (P13726 33-295 limits assumed): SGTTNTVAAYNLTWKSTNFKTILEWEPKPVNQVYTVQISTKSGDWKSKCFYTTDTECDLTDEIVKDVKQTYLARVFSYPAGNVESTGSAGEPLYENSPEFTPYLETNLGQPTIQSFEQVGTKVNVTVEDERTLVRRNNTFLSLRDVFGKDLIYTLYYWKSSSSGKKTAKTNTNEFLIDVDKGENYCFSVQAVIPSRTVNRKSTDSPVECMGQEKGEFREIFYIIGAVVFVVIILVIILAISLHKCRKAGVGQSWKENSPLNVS

| Binder | FX conversion (% inhibition), 1000 nM antibody |
| --- | --- |
| SRP2900-A08 (antibody, IgG1, V domains shown) VH: EVQLVESGGGLVQPGGSLRLSCAASGFTLTGYWIHWVRQAPGKGLEWVGYIDPYNGATYYADSVKGRFTISADTSKNTAYLQMNSLRAEDTAVYYCARADYYYVDEYWDYWGQGTLVTVSS VL: not shown | 41.9% |
| SRP2900-B10 (antibody, IgG1, V domains shown) VH: EVQLVESGGGLVQPGGSLRLSCAASGFTIPAYWIHWVRQAPGKGLEWVGYIDPYNGSTYYADSVKGRFTISADTSKNTAYLQMNSLRAEDTAVYYCARADYYYVDEYWDYWGQGTLVTVSS VL: not shown | 33.3% |
| SRP2900-B07 (antibody, IgG1, V domains shown) VH: EVQLVESGGGLVQPGGSLRLSCAASGFTIADYWIHWVRQAPGKGLEWVGFIDPYNGYTGYADSVKGRFTISADNSKNTAYLQMNSLRAEDTAVYYCARADYHGVDEYWDYWGQGTLVTVSS VL: not shown | 42.2% |
| SRP2900-B03 (antibody, IgG1, V domains shown) VH: EVQLVESGGGLVQPGGSLRLSCSASGFTIADYWIHWVRQAPGKGLEWVGYIDPYNGATYYADSVKGRFTISADTSKNTAYLQMNSLRAEDTAVYYCARADYYYVDEYWDYWGQGTLVTVSS VL: not shown | 44.1% |
| SRP2900-B04 (antibody, IgG1, V domains shown) VH: EVQLVESGGGLVQPGGSLRLSCAASGFTISEYWIHWVRQAPGKGLEWVGFIDPYNGYTGYADSVRGRFTISADTSKNTAYLQMNSLRAEDTAVYYCARADYYYVDEYWDYWGQGTLVTVSS VL: not shown | 46.3% |
| SRP2900-B05 (antibody, IgG1, V domains shown) VH: EVQLVESGGGLVQPGGSLRLSCAASGFTISGYWIHWVRQAPGKGLEWVGYIDPYNGATYYADSVKGRFTISADTSKNTAYLQMNSLRAEDTAVYYCARADYYGVDEFLDYWGQGTLVTVSS VL: not shown | 35.5% |

Further lines, results first:

| FX conversion (% inhibition), 1000 nM antibody | Binder |
| --- | --- |
| 27% | SRP2900-B02 (antibody, IgG1, V domains shown) VH: EVQLVESGGGSVQPGGSLRLSCAASGFTISDYWIHWVRQAPGKGLEWVGYIDPYNGATYYADSVKGRFTISADTSKNTAYLQMNSLRAEDTAVYYCARADYYYVDEYWDYWGQGTLVTVSS VL: not shown |
| 43.3% | SRP2900-B08 (antibody, IgG1, V domains shown) VH: EVQLVESGGGLVQPGGSLRLSCAASGFTIPSYWIHWVRQAPGKGLEWVGYIDPYNGYTYYADSVKGRFTISADTSKNTAYLQMNSLRAEDTAVYYCARADYYYVDEYFDYWGQGTLVTVSS VL: not shown |
| 38.7% | SRP2900-B01 (antibody, IgG1, V domains shown) VH: EVQLVESGGGLVQPGGSLRLSCAASGFTISGYWIHWVRQAPGKGLEWVGYIDPYNGATYYADSVKGRFTISADTSKNTAYLQMNSLRAEDTAVYYCARADYYYVDEYLDYWGQGTLVTVSS VL: not shown |
| 35% | SRP2900-B09 (antibody, IgG1, V domains shown) VH: EVQLVESGGGLVQPGGSLRLSCAASGFTISQYWIHWVRQAPGKGLEWVGFIDPYNGYTNYADSVKGRFTISADTSENTAYLQMNSLRAEDTAVYYCARADYYYVDEYWDYWGQGTLVTVSS VL: not shown |
| 46.9% | SRP2900-A09 (antibody, IgG1, V domains shown) VH: EVQLVESGGGLVQPGGSLRLSCAASGFTIADYWIHWVRQAPGKGLEWVGYIDPYNGATYYADSVKGRFTISADTSKNTAYLQMNSLRAEDTAVYYCARADYYYVDEYWDYWGQGTLVTVSS VL: not shown |
| 28.2% | SRP2900-B06 (antibody, IgG1, V domains shown) VH: EVQLVESGGGLVQPGGSLRLSCAASGFTIPSYWIHWVRQAPGKGLEWVGYIDPYNGATYYADSVKGRFTISADTSKNTAYLQMNSLRAEDTAVYYCARADYHGVDEYWDYWGQGTLVTVSS VL: not shown |
| 31.7% | SRP2900-A11 (antibody, IgG1, V domains shown) VH: EVQLVESGGGLVQPGGSLRLSCAASGFTITDYVIHWVRQAPGKGLEWVGYIDPSNGYTYYADSVKGRFTISADTSKNTAYLQMNSLRAEDTAVYYCARDDQSFTSPFDYWGQGTLVTVSS VL: not shown |
